The text below walks through data of publication PMC4824110.

The target of the series is T1, Rrp41 D182A (catalytically inactive);Rrp42 (Sulfolobus solfataricus;Sulfolobus …, UniProt Q9UXC2;Q9UXC0 ;, D182A|).
T1 sequence 1: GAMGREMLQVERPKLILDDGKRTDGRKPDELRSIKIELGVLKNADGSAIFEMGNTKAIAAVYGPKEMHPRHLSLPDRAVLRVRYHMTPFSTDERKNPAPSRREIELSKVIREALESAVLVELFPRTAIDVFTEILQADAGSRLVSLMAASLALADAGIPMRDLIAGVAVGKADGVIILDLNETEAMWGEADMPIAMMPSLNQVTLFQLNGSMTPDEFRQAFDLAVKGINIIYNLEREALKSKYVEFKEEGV
T1 sequence 2: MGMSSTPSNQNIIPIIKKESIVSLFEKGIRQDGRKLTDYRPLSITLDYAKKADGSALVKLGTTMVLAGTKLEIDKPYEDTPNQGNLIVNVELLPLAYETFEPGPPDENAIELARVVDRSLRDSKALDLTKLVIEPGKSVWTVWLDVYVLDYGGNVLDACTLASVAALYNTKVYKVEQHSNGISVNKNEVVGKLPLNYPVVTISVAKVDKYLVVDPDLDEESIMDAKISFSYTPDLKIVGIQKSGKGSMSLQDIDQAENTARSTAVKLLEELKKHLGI
As to the kind of experiment: fluorescence anisotropy. Background: Polarisation of emitted light reports the rotation of a fluorescent probe.

B1: fluorescent 32A (FA RNA) (structured_RNA)
RNA: GCCCCCCCCGAAAGGGGGGGGAAAAAAAAAAAAAAAAAAAAAUAAAAAAAAAAAGCU
modifications: 4-thiouridine at position 43
One may read the Kd as the free concentration of one partner at which half of the binding sites on the other are occupied at equilibrium, for simple one-to-one binding. Low values mean higher affinity, high ones lower affinity. On to B1, for which binding was characterised by a dissociation constant (Kd) of 11.7 ± 0.9 nM.
